Laboratory results published in PMC3384303 (Nucleic Acids Research, 2012).

Molecular target: the molecule itself
Test: crystal structure

B1: SsbB (natural protein, Bacillus subtilis, UniProt C0SPB6 1-113, looked up)
chain: MFNQVMLVGRLTKDPDLRYTSAGAAVAHVTLAVNRSFKNASGEIEADYVNCTLWRKTAENTALYCQKGSLVGVSGRIQTRSYENEEGVNVYVTEVLADTVRFMDPKPREKAAD
  stoichiometry N: 4
